What is called Kd is a measure of binding affinity in units of concentration. Read a low Kd as tighter binding.

On the set-up of data set [1]: species or system mice. The following applies: mouse, in vivo, iv. As for the experimental part:
Gallium-68 (^68Ga) was eluted from the generators onsite at the time of the experiments. Radiolabelling of the respective DOTAMA-CBP compound was performed as follows: DOTAMA-CBPs were dissolved in water (Baxter water for irrigation) to a final concentration 4 mg/mL. In an Eppendorf, 25 µL of the DOTAMA-CBP solution was added. Sodium acetate (30%NaOAc, 20 µL, pH 5) buffer was added to this solution followed by the addition of 200 µL ^68Ga (~100 MBq). The solution was then heated to 50 °C for 30 min. After the reaction was removed from heat, the pH was adjusted to pH 7 by adding sodium bicarbonate (1 M, 10 µL). Labelling efficiency was followed by radio thin-layer chromatography (TLC) and HPLC. Radio TLCs were performed using silica gel IBF-2 Baker plates, 10% NH4OAc 50:50 in MeOH with 5 µL of the sample added. For the HPLC, a C18 column was used (MeCN + 0.1% TFA and H2O + 0.1% TFA, gradient) with 10 µL of the sample measured.
In vivo biodistribution imaging was carried out using a positron emission tomography/computed tomography (PET/CT) scanner (NanoPET/CT scanner; Mediso, Hungary. Male apolipoprotein E knockout (ApoE^−/−) were anesthetised with 4% isoflurane mixed with 1% medical oxygen and maintained at 2% isoflurane for the PET/CT experiment. Mice were injected intravenously (i.v.) with either ^68Ga-DOTAMA-CBP1 or ^68Ga-DOTAMA-CBP2 (12MBq/mouse for both probes). To verify anatomical structures, CT images were obtained after the PET imaging with a 55 kVp voltage. PET images were acquired continuously up to 90 min post-injection with a 256 × 256 matrix size and a resolution of 1 mm/pixel. PET and CT images were reconstructed using the manufacturer software with a voxel size of 0.4 mm and analysed with a VivoQuant 2.5 software (Invicro, Boston, MA, USA). The data acquired with the CBP1 and CBP2 imaging probes were reconstructed in 15-minute bins up to 90 min. The PET/CT images were merged using the software’s automated fusion function. Additionally, the software was used for region-of-Interest (ROI) analysis and results were reported as %ID/g for each organ. Following the in vivo PET/CT imaging, the animals were euthanised and tissues extracted for ex vivo gamma counting (1282 CompuGamma gamma counting, LKB Wallac, Finland).

In the next data set the target is T1, COL3 (Mus musculus, UniProt P08121).
T1 construct: from tissue; host or cells: infarcted left-ventricular myocardium of female CD1 mice, in vivo
T1 sequence (P08121 155-1219 limits assumed): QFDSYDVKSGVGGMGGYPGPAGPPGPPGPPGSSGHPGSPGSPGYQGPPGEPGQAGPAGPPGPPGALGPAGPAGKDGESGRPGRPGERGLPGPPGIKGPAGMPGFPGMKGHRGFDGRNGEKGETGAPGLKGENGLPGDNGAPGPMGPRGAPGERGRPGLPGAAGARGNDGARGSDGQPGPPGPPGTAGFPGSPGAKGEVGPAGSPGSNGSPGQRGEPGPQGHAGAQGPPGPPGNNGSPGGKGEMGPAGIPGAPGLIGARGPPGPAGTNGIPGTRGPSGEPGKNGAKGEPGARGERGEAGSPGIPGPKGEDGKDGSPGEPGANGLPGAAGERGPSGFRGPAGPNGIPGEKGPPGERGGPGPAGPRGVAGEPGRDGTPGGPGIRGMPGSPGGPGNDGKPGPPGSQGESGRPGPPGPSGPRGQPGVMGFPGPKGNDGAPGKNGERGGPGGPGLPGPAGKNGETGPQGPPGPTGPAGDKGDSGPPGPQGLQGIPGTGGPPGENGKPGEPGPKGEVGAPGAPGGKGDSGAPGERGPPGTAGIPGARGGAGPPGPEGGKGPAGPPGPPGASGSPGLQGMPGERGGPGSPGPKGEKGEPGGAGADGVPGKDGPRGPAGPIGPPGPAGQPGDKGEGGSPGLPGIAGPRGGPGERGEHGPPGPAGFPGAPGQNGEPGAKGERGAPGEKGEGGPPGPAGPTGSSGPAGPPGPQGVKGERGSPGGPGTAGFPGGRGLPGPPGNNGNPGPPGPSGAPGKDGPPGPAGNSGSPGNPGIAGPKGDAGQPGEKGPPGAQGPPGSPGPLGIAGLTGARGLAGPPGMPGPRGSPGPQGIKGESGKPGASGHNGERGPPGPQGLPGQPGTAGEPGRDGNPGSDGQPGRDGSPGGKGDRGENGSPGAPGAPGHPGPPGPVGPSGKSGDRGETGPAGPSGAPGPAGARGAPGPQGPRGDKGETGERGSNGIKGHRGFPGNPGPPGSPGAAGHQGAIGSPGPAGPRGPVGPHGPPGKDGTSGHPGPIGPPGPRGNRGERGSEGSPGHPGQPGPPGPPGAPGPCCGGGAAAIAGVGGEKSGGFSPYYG
The experiment in a line: In vivo MRI of the aortic wall in a murine model of vascular remodelling. The following applies: ApoE−/− mice after aortic injury and 12 weeks high-fat diet, i.v. 0.2 mmol/kg, LGE MRI at 3 T up to 2 h post-injection. An excerpt: Male ApoE^−/− mice were bred in-house and underwent surgery at 8–10 weeks of age (n = 6). Mice were anesthetised with 4% isoflurane mixed with 1% medical oxygen and anaesthesia was maintained at 2% during the surgery as previously reported. Briefly, mice underwent a laparotomy to expose the abdominal aorta, renal and iliac arteries. Two ligatures were inserted around the aorta (surgical silk, size 4–0, Aragó, Zaragoza, Spain), the first below the renal arteries and the second above the iliac bifurcation. A 30 G needle was introduced into the abdominal aorta at the level of the iliac bifurcation, via an aortic puncture. 1 mL of saline was infused into the aorta in three boluses. Finally, the needle was removed, and the puncture was repaired. The muscle and skin incisions were sutured (5-0 Vicryl, Ethicon Inc, Somerville, NJ), and the animals were allowed to recover. Mice were switched to a high-fat diet (HFD) containing 21% fat from lard and 0.15% (wt/wt) cholesterol (Special Diets Services, Witham, United Kingdom), on day 2 post-surgery for 12 weeks prior to the imaging experiments.
Anaesthesia was induced with 4% and maintained with 1–2% isoflurane during the MRI experiments. Mice (n = 3 per group) were placed supine on a single-loop surface coil (diameter = 47 mm) and the abdominal aorta was imaged up to 2 h post-injection of the monomeric (i.v. 0.2 mmol/kg, 0.2 mmol/kg Gd), the next day with the corresponding tetrameric collagen-binding probe (i.v 0.2 mmol/kg, 0.8 mmol/kg Gd) and the 3rd day using the scrambled probes (n = 2–3 per probe; i.v. 0.2 mmol/kg). This timeline ensures complete washout of one probe from the tissue before the administration of another probe. […]

Another data set addresses T2, Collagen type III (COL3) (Homo sapiens, UniProt P02461).
T2 chain: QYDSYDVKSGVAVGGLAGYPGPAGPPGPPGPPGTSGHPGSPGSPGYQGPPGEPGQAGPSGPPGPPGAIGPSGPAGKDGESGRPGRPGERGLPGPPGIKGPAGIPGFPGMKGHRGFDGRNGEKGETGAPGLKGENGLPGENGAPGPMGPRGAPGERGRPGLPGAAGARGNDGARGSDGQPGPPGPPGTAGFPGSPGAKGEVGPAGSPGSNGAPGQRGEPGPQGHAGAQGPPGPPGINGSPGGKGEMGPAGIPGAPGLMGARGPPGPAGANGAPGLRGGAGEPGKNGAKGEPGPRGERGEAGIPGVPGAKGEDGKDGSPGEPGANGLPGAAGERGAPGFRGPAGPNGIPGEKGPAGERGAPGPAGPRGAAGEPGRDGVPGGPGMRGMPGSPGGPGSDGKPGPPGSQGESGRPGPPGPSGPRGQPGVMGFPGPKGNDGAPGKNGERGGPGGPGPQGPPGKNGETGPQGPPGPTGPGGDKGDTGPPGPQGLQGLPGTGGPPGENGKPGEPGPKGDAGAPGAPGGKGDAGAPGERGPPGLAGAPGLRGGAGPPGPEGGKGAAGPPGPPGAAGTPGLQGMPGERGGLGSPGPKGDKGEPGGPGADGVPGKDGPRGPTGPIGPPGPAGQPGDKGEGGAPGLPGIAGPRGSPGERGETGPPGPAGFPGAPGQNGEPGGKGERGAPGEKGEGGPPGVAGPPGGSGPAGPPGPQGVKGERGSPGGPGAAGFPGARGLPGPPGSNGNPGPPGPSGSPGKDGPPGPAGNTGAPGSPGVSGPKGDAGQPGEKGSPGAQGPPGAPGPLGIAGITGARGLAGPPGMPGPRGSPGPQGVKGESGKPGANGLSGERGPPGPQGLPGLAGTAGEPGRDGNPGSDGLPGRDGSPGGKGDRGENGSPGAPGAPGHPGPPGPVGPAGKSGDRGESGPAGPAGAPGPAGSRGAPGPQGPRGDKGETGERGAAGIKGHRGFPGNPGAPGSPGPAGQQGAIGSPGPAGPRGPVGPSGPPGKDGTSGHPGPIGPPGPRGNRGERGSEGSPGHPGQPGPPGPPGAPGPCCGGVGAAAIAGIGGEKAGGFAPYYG
Description: Eu(III) time-resolved fluorescence plate assay.

Residues, ends and D or L forms follow the SMILES beside them. No end group written: not given here. *: point of attachment. DOTA = O=C(O)CN1CCN(CC(=O)O)CCN(CC(=O)*)CCN(CC(=O)O)CC1

On to `CSCC[C@H](NC(=O)[C@H](CCCNC(=N)N)NC(=O)[C@H](CC(C)C)NC(=O)[C@@H]1CCCN1C(=O)[C@H](Cc1ccccc1)NC(=O)[C@H](CCC(=O)O)NC(=O)[C@@H](NC(=O)CN1CCN(CC(=O)O)CCN(CC(=O)O)CCN(CC(=O)O)CC1)[C@@H](C)O)C(=O)N[C@@H](CCCNC(=N)N)C(=O)N[C@@H](CC(=O)O)C(=O)N[C@@H](Cc1c[nH]c2ccccc12)C(=O)N[C@@H](CC(C)C)C(=O)N[C@@H](CCCCN)C(=O)N[C@@H](CC(N)=O)C(=O)O` [^68Ga-DOTAMA-CBP2, metal not drawn] ({DOTA}-TEFPLRMRDWLKN-OH), for which, in data set [1], the “route of elimination (in words)” value is on record as “renal excretion”, the “time within which most of the probe is eliminated from the blood (first phase clearance)” value lay in the range of 15 to 30 min and the “unspecific uptake in tissues (in words)” value is “no significant unspecific uptake in tissues”.

For `CC(C)[C@H](NC(=O)[C@H](CCC(=O)O)NC(=O)[C@H](CO)NC(=O)[C@H](CCCCN)NC(=O)[C@H](CCCNC(=N)N)NC(=O)[C@H](C)NC(=O)[C@H](CC(=O)O)NC(=O)CN1CCN(CC(=O)O)CCN(CC(=O)O)CCN(CC(=O)O)CC1)C(=O)N[C@@H](CCC(N)=O)C(=O)N[C@@H](CCCCN)C(=O)O` [^68Ga-DOTAMA-CBP1, metal not drawn] ({DOTA}-DARKSEVQK-OH), in data set [1], the “route of elimination (in words)” value was “renal excretion”, the “time within which most of the probe is eliminated from the blood (first phase clearance)” value lay within 15 to 30 min and the “unspecific uptake in tissues (in words)” value is given as “no significant unspecific uptake in tissues”.

“Ac-C-EWFMKDRLLNRPT [[Gd-DOTAMA]4-SccCBP2, scrambled tetrameric Gd probe (Ac-C-…), negative control]”: the “signal enhancement of the remodelled aortic wall (in words)” value on COL3 is reported as “also showed signal enhancement”.

In the data set with Collagen type III (COL3), TEFPLRMRDWLKN (not fully specified (N-terminus); also: Eu complexed by N-terminal DOTAMA) [Eu-DOTAMA-CBP2] displayed a Kd of 4.8 µM.

Regarding DARKSEVQK (not fully specified (N-terminus); also: Eu complexed by N-terminal DOTAMA) [Eu-DOTAMA-CBP1], the Kd with Collagen type III (COL3) worked out at 5.3 µM.
